assay: soluble on expression in E. coli; label from the status in PepcDB or PDB records

Row | Sequence | soluble on expression in E. coli
1 | MGSDKIHHHHHHMTQNLRVIIDARMVNKHLHGIARYTYEIIKHMSYEDNVEMILLVNDLEEASKIFGQFNNIKFKRMRSKFLSIFEQIELPMIVNKYKNMAIFHSPSFVASPFIKCKMIMTIHDLNHLKFPQYYTPFHKYYYKYIVKKCALKSKKILTVSEFSKEEIFKWIKCDRDKIKVTYNGIDPKFHVISDAEKLKKIKEKYKLPDRFILYIGNLKPHKNVETLVKAMRFIDGKVKLVINGTINKSISEILDKFNLLEKVKFIGYVNEDELPLLYNLASVFVFPSLYEGFGLPPLEAAVCGCKVIISDISSLSEIMSDYGVKVNPLDSKGMAREIKKILENSSIDICNKEKETFVQKYSWNKTSSKTLEIYKEINKEFL | not soluble
2 | MTATIQNEKVIVSISDKGAELQSVRLKEDNTEYLWQGDSTYWGRRAPILFPIVGRLVDNTYYVDGKPYSLTQHGFARDLTFFVKEQSETKITYIVTSNEETLKKYPYEFELLVSYELNGQSVHITYEVNNPTSKEMFFSIGAHPGFNFPLLDGESFTDYHLSFNGSERLETSVLEGPYLSNKKQLIAENTTELPLTYDLFKNDALIFEHMNTNEISIRSHKHNKFVKVEFDGFPFVGVWTPGDNAPFLCIEPWYGIADEVNPAKDFKNKKGIQSLQANETFTCRYSITIGLEHHHHHH | soluble
3 | KSLTLVLHRDSGSLGFNIIGGRPSVDNHDGSSSEGIFVSKIVDSGPAAKEGGLQIHDRIIEVNGRDLSRATHDQAVEAFKTAKEPIVVQVLRRT | soluble
4 | MSFAIEIVIKAPMDIVCDYIIEDEKIKEWNTFIIENRYPSNMDKENPRVGDKYITVQKVGKKIFEAEVEILEYDAPHIISLGSEMKQGYSAMTYMLEEDEEGTALTLISEYEPSNFYYKMMYKLTGWISRGLTMEQMERLAECVEAAYHKEDLEHHHHHH | not soluble
5 | MAHHHHHHMKKKVELKFLGGLESYLEDKSKNVVTLEIESEKLSFENLIAYIRNHILVDRKDVFADHVLCDGTEFCQVVVDHVERKNYNLNEKAKIKPGIIVLINEYDWEIMHMYEYQIRDGDKLCFLSTLHGG | not soluble
6 | MGSDKIHHHHHHMALTQLEQPLSPQPTPPDLRGYEYDLVIVGGGIIGLTLASALKDSGLSILLIEAKVASAAVAKGQAYAVHQLSALIYQGIGVWDKILPQIAKYRRVRLSDADYPNVVEFTTDDIHTAELGYVAEHQALLQPLQEFVQDCPNVTYLCPAEVVNTQYQKDIVAVDIKVADQLYTVRSKLLIAADGARSPIRQAAGIKTSGWKYWQSCIVAFVKPEKPHNNTAYERFWSSGPFAILPLPENRCRIVWTAPHEEAKALCALDDEQFLAELTRRYGDQMGKLELLGDRFVFQVQLMQSDRYVLPRLALIGDAAHNCHPVGGQGLNLGIRDAAALAQVIQTAHQAGKDIGDIQILKGYERWRKLENLTILGFTDLLDRMFSNNFLPVVVVRRLGLWFLQRVPLLKVFMLKLMIGLKGRTPELAKR | not soluble
7 | MSLRLLPQPQQCVLAKGYFIVGKMQLSTPVLSQEWKQFVTEMGGTLTDQSASSINIKLVDAIDNVSVNKEEAYRLTITPKAITVEAVAERGVYWAMQTLYQLKEEKGKKNRLQCATITDWPAFRIRGFMQDVGRSYLSLEELKREIAILSRFKINTFHWHLTENQAWRLESKIFPMLNDSTNMTRMAGKYYTLEEARELTEFCKAHQVLLIPEIDMPGHSAAFIRTFRHDMQSPEGMKILKLLLDEICETFDVPYLHIGTDEVHFTNPQFVPEMVAYVRDKGKKVISWNPGWKYKAGEIDMMQLWSYRGKAQQGIPAIDSRFHYLNHFDTFGDIIALYNSRIYNADMGSDDLAGVIMGIWNDRLIDKEWNMVLENNFYPNMLAIAERSWRGGGTEYFDKQGTILPVDENSEVFRNFEDFESRMLWYKEHLFKGYPFAYVKQTHVKWNITDAFPNEGDLTKVFPPEEELKDSYTYEGKQYGVRPAIGAGIYLRHVWGKIVPAFYKDPQENHTAYAYTYVYSSKTQEVGLWAEFQNYGRSENDLPPLPGKWDYKESRIWINDQEILPPVWSATHLVKSSETALGNENCVARPPLRVHLHKGWNKVLLKLPVGKFSTNEVRLVKWMFTAVFVTPDGDKAVEGLIYSPEKEGHHHHHH | soluble
8 | EGRYIYMNPAHREMFGIATEDEILGRSWRELYSGDVADHIATTALPALLSTGGWRGELIGRRRDGSDLPQEVSLTLKADGGIICISRD | not soluble
9 | QKVTSLTACLVDQSLRLDCRHENTSSSPIQYEFSLTRETKKHVLFGTVGVPEHTYRSRTNFTSKYNMKVLYLSAFTSKDEGTYTCALHHSGHSPPISSQNVTVLRDKLVKCEGISLLAQNTSWLLLLLLSLSLLQATDFMSL | not soluble
10 | MGSDKIHHHHHHACSDDDKVSISTVGITTTVDTTIEGLQLTGGTYTFENVNTSVKTDITYPAQSIELADGLYNVTFIGKGTYSQNGTPVEVDVQGVQQNVAVSGGSYKLELKVHVLNTGDPDFVIAEIFIPGTYNEAGKQYNGDQYIRIYNNSDKVLYADGLIFMESQFQTTQKYQSVDPDIMDEAIAVGSVVAVPGSGTDYPVQPGESFILCDNAINHKEANPNSIDLSKANFEWYIESKQDVDNPAVPNLDVYYCYSKTIWVLNKQGNRAYAIGRLPKSMTKEKYISDYAYNYTYIMQNGTASKPQSKYKFPNEWVIDAVNVGASNEWQWNVTSTGLDMGHTYIGMNNTVAENIGKCVMRKAAYKDGDREVLQDTNNSTVDFTPAATPSLFNK | not soluble
11 | MAHHHHHHMGGFGSKNMEYYNYASMKLLERDKYTNEKEEEEDDQYCKETDIREAVKKAREIRNCNYKESMDLYIKALKMLKKLKENNSRIYRNVLEFEIRPQEIASSAPLNTSLEKNIHMKKEGETNYTCAPPNDNQAISLNNKIASLYNEIADLCCIHDFIEKSLFYYDKACSYNPSKIDYIYKKGVLFQQMNDTERAINTFKIILSAEPNHIPTLFSLGNLYRYIDNHIALSYFEAILKIEPNNTEVLSLIASCYDNLGKLNEAISYQNKAVQIDPDNFNHKKFAQRLIEMKSQN | soluble
12 | MVIEMEPDTHIISALVEHKPGVLQRVAGLFTRRGFNIENITVGESETPGIARMTIIARGDDRVLEQITKQLNKLIDVIKVRDLEPAATVKRELCMVKVHAPSESERSEIIQYTNIFRGRIVDVSPDALTVEVTGDSEKIDAFLELLRNFGIKELARTGPTAMSRGSRTM | not soluble
13 | MEANMKKVIGAATATVFGLGAFTTTATAETIVTADVLNVREKPTTESKVVEKVKNGQELKVINTEDGWSKIELNGKEVFVSSEFTKDVYHVTANLLNVRTEANTDSEILGRLKKDDVIESTHQVKDGWLQFEYKGKTAYANVSFLSSTAPTEKKTEEKTKQVAKVQKSVKEKKEVKTQKVAKAKETTKAQEIVKPKEEAKVVKVKEEEKAQEIVKPKEEAKIKEEVKVKEEVKVKEEEKAQEIAKAKEEAKIKEEVKVKEEEKAQEIVKAKEEVKAKEEEKAQEIVKAKEEVKVKEEVKAKEIAKAKEEEKAREIAKAKEEEKAKEIAKAKEEEKAREIAKAKEEEKAREIAKAKEEEKAREIAKAKEEEKAREIAKAKEEERAKEASKNNIQSAKRELTVVATAYTADPSENGTYGGRVLTAMGHDLTANPNMRIIAVDPKVIPLGSKVWVEGYGEAIAGDTGSAIKGNRIDVLMGSKSKAMNWGRQTVKVKILLEHHHHHH | not soluble
14 | MGSDKIHHHHHHMWFSLTYAIIMHSLTTTRKMLQRLDVYLTSFEWGNFSKSKLSILQAFLKIATKDGYDAVSMRSLAKAVDLKPPTMYSHFPAGKDQIVSSAFRWHYYSFAMAVKEGLSQSETLEEYWSALIRVHIIQQIKHPENDLFDMLMATDRLGSILPTDLRSEMIEWLSFCDFMYESIATDLGIDDAKQKSKIIRVTLDGANSWWKWDDSQENLEECIRYAERIAAGILKI | not soluble
15 | GPGSMGYRLLRDNVFKASCAKDSDELRARREPTMLYKEDQLVAPASGTERRYTLVLDLDETVIYAREGPLYARAYLKELLSFIRKNFEVIVWTAGEREYAECILEEINIRNTVRHLIHRHKTWFSFDDYTKDLTKLGRNLDYVIIIENSPDCVRTNPQNGIIVDDFRVSQTPPMEEAEAAWEGDGNNRERKAGSRSDSKTRRQVTDRTLLLLREVLKAMVESGETVPDFLAKCPLLTQRRVIGSDGSQIQTYHLGTRRKRGIPQLCASSPKRRRVTKESAPGATCTS | soluble
16 | MGSDKIHHHHHHMQQVFFQETEFLNSVIDYDHKVETENLCLDIAYGTDKNFLFGCGISIASILKYNEGSRLCFHIFTDYFGDDDRKYFDALALQYKTRIKIYLINGDRLRSLPSTKNWTHAIYFRFVIADYFINKAPKVLYLDADIICQGTIEPLINFSFPDDKVAMVVTEGQADWWEKRAHSLGVAGIAKGYFNSGFLLINTAQWAAQQVSARAIAMLNEPEIIKKITHPDQDVLNMLLADKLIFADIKYNTQFSLNYQLKESFINPVTNDTIFIHYIGPTKPWHDWAWDYPVSQAFMEAKNASPWKNTALLKPNNSNQLRYSAKHMLKKHRYLKGFSNYLFYFIEKIKH | not soluble
17 | MGSDKIHHHHHHMHHWESLVGEQAIPFFRWRWLAALEDSSSISAKHGWQPLHLALWRDDMPVAVAPLYLKGHSYGEFVFDQAFARLAGDLGLGYYPKLLGMSPVSPVQGYRFYVAPGENEAELTVLMLETIDAFARRNQILSCNFLYVDPHWRPLAEAAGCATWLNQQSLWSADGQSDFSAYLNSFNANQRRNIKRERKAVQQAGLTVSALTGVELDVQLLRCMHGFYEQHCARWGPWGSKYLSEAFFEALADSSLRDQVVLFSAHRVSPREPVAMSLCIQDGQMLWGRYWGSKEEIDCLHFEVCYYAPIAWALENGLENFDPGAGGQHKRRRGFVAKPHASLHRWYEPRMDALIRGWLRKVNPLMLEEIESANADLPFRVEPAPQLIVE | not soluble
18 | MRRNGSVPDLNKNDAFRRPPAPKGGVEKRKKGRASGLDGRQKRYVRGAESLGSVLNKEIQRRGWGKDIAGGWVTSNWEELVGAKIAQHTRVEMIKDKKLFITCDSTAWATNLRMMQRQILQVIAEKVGPNIITELRIFGPQAPSWRKGPLHVKGRGPRDTYG | not soluble
19 | MAITLKTYAYTINRVLYFHTFVKFLFSNLVSFDTFEEIGNDVAVIVFLEHSFTRSHEKRHVCRESLLLSSCNNKLSRIHGLSERISKRYQKPSRGDIVVIRSPENPNKTPIKRVVGVEGDCISFVIDPVKSDESQTIVVPKGHVFVQGDYTHNSRDSRNFGPVPYGLIQGRVLWRDNTTGIVTQVVLDTALLRETTNGLRIKTYQGGSGYVQGIRFTNVEMQDTSAVKISHIMYRNITKSAKAIKFACSDTVPCSHIVLNNVNLEGKDGQVEAYCNSAEGFGYGVYSHNDKGLDQTHKSEEAETGHDEL | soluble
20 | MGSDKIHHHHHHMKNLFLFCRAGYEKECAAEIQQRAAEMNVGGFVKTTNNDAYVIYQCFEDDGADTLAKMLPLNSLIFARQMFAASELHSDLPEQDRVGPLVASLLEADVTKCGELRVETPDTNEAKELSAFCRKFTVPLRQGLKKVGVLLDKENGRRPIIHVCFVGPGKAYVGYSLSNNSSPHFMGIPRLRMAADAPSRSSLKLDEAFGAFLTKEEQEMRCRSGLKAVDLGACPGGWTYQLVRRGMMVAAVDNGPMDEKLMETGQVKHYRADGFRFEPPRKNIYWLVCDMVEKPSRVAELMEAWAINGWFKEAIFNLKLPMKSRYKEVRVILDTMGEIFKENEIDYRLQCKHLYHDRDEVTVHLWIFPEKGVSYAEMG | not soluble
21 | MAHHHHHHMVAKRKEFELTKVIQEATFLTFKGLDTHDVYNCCVPFKISGTYHIFGRVERRSEWVNSHVRLFRKTGHDEYTLVEHAMQYQLEDPFLVKINNEALFGGVRVTKDHGKVSGYVCDFYRGKIDDLHYFTSGPQNMKDIRLVVLADGKIGVFSHHKTSNTCITGFTIIDSLDDLCSQVIDSAKPIDHTLFGDAWGGVNQPYLLSTGKIGCISHHGYLDTDAHGEVINVYCITSFVYQPSANKCYDYKILGTKNCFPDYPAKALKLIDCAFVSGIVMREDGKCDLYSGVGDTREGRMVIDYPFEGHGTIADDLDF | not soluble
